In IntAct's records for PubMed 9341158:

B1: AP-2 complex subunit mu (Rattus norvegicus (Rat)), P84092 (parent)
chain: MIGGLFIYNHKGEVLISRVYRDDIGRNAVDAFRVNVIHARQQVRSPVTNIARTSFFHVKRSNIWLAAVTKQNVNAAMVFEFLYKMCDVMAAYFGKISEENIKNNFVLIYELLDEILDFGYPQNSETGALKTFITQQGIKSQHQTKEEQSQITSQVTGQIGWRREGIKYRRNELFLDVLESVNLLMSPQGQVLSAHVSGRVVMKSYLSGMPECKFGMNDKIVIEKQGKGTADETSKSGKQSIAIDDCTFHQCVRLSKFDSERSISFIPPDGEFELMRYRTTKDIILPFRVIPLVREVGRTKLEVKVVIKSNFKPSLLAQKIEVRIPTPLNTSGVQVICMKGKAKYKASENAIVWKIKRMAGMKESQISAEIELLPTNDKKKWARPPISMNFEVPFAPSGLKVRYLKVFEPKLNYSDHDVIKWVRYIGRSGIYETRC

Variants of: B1
Settings: with ap2b1_human AP2B1, P63010
Sequence of ap2b1_human AP2B1, P63010 (P63010 whole entry): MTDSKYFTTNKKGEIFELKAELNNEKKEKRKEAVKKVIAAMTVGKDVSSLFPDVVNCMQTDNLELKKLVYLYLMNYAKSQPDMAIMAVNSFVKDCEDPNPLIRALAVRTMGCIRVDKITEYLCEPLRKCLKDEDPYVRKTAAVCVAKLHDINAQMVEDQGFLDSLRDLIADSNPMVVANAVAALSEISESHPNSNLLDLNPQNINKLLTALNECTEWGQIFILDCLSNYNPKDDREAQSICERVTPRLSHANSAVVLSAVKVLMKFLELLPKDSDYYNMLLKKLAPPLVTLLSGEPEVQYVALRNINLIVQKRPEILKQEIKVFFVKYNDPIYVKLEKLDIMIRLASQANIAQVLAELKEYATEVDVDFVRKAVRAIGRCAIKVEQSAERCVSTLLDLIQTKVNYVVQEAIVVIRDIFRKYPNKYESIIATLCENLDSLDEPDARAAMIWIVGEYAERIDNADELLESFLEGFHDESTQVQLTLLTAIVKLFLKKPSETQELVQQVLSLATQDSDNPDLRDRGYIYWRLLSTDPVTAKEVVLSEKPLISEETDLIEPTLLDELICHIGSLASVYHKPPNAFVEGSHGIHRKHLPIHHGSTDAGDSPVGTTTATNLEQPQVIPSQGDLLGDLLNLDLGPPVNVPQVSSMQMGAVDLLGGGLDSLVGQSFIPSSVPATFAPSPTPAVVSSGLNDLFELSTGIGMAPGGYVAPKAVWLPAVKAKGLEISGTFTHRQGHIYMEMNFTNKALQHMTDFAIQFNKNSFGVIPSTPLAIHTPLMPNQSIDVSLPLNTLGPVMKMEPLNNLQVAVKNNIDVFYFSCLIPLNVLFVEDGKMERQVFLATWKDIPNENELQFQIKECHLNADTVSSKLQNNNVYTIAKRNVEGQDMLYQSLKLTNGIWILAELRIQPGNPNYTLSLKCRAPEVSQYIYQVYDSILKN

Effect of a mutation on the interaction, decreasing interaction:
MIGGLFIYNHKGEVLISRVYRDDIGRNAVDAFRVNVIHARQQVRSPVTNIARTSFFHVKRSNIWLAAVTKQNVNAAMVFEFLYKMCDVMAAYFGKASEENIKNNFVLIYELLDEILDFGYPQNSETGALKTFITQQGIKSQHQTKEEQSQITSQVTGQIGWRREGIKYRRNELFLDVLESVNLLMSPQGQVLSAHVSGRVVMKSYLSGMPECKFGMNDKIVIEKQGKGTADETSKSGKQSIAIDDCTFHQCVRLSKFDSERSISFIPPDGEFELMRYRTTKDIILPFRVIPLVREVGRTKLEVKVVIKSNFKPSLLAQKIEVRIPTPLNTSGVQVICMKGKAKYKASENAIVWKIKRMAGMKESQISAEIELLPTNDKKKWARPPISMNFEVPFAPSGLKVRYLKVFEPKLNYSDHDVIKWVRYIGRSGIYETRC [I96A]
MIGGLFIYNHKGEVLISRVYRDDIGRNAVDAFRVNVIHARQQVRSPVTNIARTSFFHVKRSNIWLAAVTKQNVNAAMVFEFLAKMCDVMAAYFGKISEENIKNNFVLIYELLDEILDFGYPQNSETGALKTFITQQGIKSQHQTKEEQSQITSQVTGQIGWRREGIKYRRNELFLDVLESVNLLMSPQGQVLSAHVSGRVVMKSYLSGMPECKFGMNDKIVIEKQGKGTADETSKSGKQSIAIDDCTFHQCVRLSKFDSERSISFIPPDGEFELMRYRTTKDIILPFRVIPLVREVGRTKLEVKVVIKSNFKPSLLAQKIEVRIPTPLNTSGVQVICMKGKAKYKASENAIVWKIKRMAGMKESQISAEIELLPTNDKKKWARPPISMNFEVPFAPSGLKVRYLKVFEPKLNYSDHDVIKWVRYIGRSGIYETRC [Y83A]
MIGGLFIYNHKGEVLISRVYRDDIGRNAVDAFRVNVIHARQQVRSPVTNIARTSFFHVKRSNIWLAAVTKQNVNAAMVFEFAYKMCDVMAAYFGKISEENIKNNFVLIYELLDEILDFGYPQNSETGALKTFITQQGIKSQHQTKEEQSQITSQVTGQIGWRREGIKYRRNELFLDVLESVNLLMSPQGQVLSAHVSGRVVMKSYLSGMPECKFGMNDKIVIEKQGKGTADETSKSGKQSIAIDDCTFHQCVRLSKFDSERSISFIPPDGEFELMRYRTTKDIILPFRVIPLVREVGRTKLEVKVVIKSNFKPSLLAQKIEVRIPTPLNTSGVQVICMKGKAKYKASENAIVWKIKRMAGMKESQISAEIELLPTNDKKKWARPPISMNFEVPFAPSGLKVRYLKVFEPKLNYSDHDVIKWVRYIGRSGIYETRC [L82A]

Variants of: B1
Settings: with tgon3_rat Ttgn1, P19814
Sequence of tgon3_rat Ttgn1, P19814 (P19814 whole entry): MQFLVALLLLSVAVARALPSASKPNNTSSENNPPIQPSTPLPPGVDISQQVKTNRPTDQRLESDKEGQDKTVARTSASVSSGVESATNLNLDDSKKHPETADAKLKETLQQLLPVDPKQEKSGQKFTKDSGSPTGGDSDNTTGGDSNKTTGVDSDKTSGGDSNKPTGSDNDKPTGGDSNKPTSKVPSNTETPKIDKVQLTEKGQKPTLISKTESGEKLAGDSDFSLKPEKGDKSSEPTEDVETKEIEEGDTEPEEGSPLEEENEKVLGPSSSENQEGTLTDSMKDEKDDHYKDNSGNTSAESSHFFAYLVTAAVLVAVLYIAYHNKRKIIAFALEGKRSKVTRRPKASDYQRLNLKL

Effect of a mutation on the interaction, decreasing interaction:
MIGGLFIYNHKGEVLISRVYRDDIGRNAVDAFRVNVIHARQQVRSPVTNIARTSFFHVKRSNIWLAAVTKQNVNAAMVFEFLYKMCDVMAAYFGKISEENIKNNFVLIYELLDEILDFGYPQNSETGALKTFITQQGIKSQHQTKEEQSQITSQVTGQIGWRREGIKYRRNELFLDVLESVNLLMSPQGQVLSAHVSGRVVMKSYLSGMPECKFGMNDKIVIEKQGKGTADETSKSGKQSIAIDDCTFHQCVRLSKFDSERSISFIPPDAEFELMRYRTTKDIILPFRVIPLVREVGRTKLEVKVVIKSNFKPSLLAQKIEVRIPTPLNTSGVQVICMKGKAKYKASENAIVWKIKRMAGMKESQISAEIELLPTNDKKKWARPPISMNFEVPFAPSGLKVRYLKVFEPKLNYSDHDVIKWVRYIGRSGIYETRC [G270A]
MIGGLFIYNHKGEVLISRVYRDDIGRNAVDAFRVNVIHARQQVRSPVTNIARTSFFHVKRSNIWLAAVTKQNVNAAMVFEFLYKMCDVMAAYFGKISEENIKNNFVLIYELLDEILDFGYPQNSETGALKTFITQQGIKSQHQTKEEQSQITSQVTGQIGWRREGIKYRRNELFLDVLESVNLLMSPQGQVLSAHVSGRVVMKSYLSGMPECKFGMNDKIVIEKQGKGTADETSKSGKQSIAIDDCTFHQCVRLSKFDSERSISFIPPAGEFELMRYRTTKDIILPFRVIPLVREVGRTKLEVKVVIKSNFKPSLLAQKIEVRIPTPLNTSGVQVICMKGKAKYKASENAIVWKIKRMAGMKESQISAEIELLPTNDKKKWARPPISMNFEVPFAPSGLKVRYLKVFEPKLNYSDHDVIKWVRYIGRSGIYETRC [D269A]
MIGGLFIYNHKGEVLISRVYRDDIGRNAVDAFRVNVIHARQQVRSPVTNIARTSFFHVKRSNIWLAAVTKQNVNAAMVFEFLYKMCDVMAAYFGKISEENIKNNFVLIYELLDEILDFGYPQNSETGALKTFITQQGIKSQHQTKEEQSQITSQVTGQIGWRREGIKYRRNELFLDVLESVNLLMSPQGQVLSAHVSGRVVMKSYLSGMPECKFGMNDKIVIEKQGKGTADETSKSGKQSIAIDDCTFHQCVRLSKFDSERSISAIPPDGEFELMRYRTTKDIILPFRVIPLVREVGRTKLEVKVVIKSNFKPSLLAQKIEVRIPTPLNTSGVQVICMKGKAKYKASENAIVWKIKRMAGMKESQISAEIELLPTNDKKKWARPPISMNFEVPFAPSGLKVRYLKVFEPKLNYSDHDVIKWVRYIGRSGIYETRC [F265A]
MIGGLFIYNHKGEVLISRVYRDDIGRNAVDAFRVNVIHARQQVRSPVTNIARTSFFHVKRSNIWLAAVTKQNVNAAMVFEFLYKMCDVMAAYFGKISEENIKNNFVLIYELLDEILDFGYPQNSETGALKTFITQQGIKSQHQTKEEQSQITSQVTGQIGWRREGIKYRRNELFLDVLESVNLLMSPQGQVLSAHVSGRVVMKSYLSGAPECKFGMNDKIVIEKQGKGTADETSKSGKQSIAIDDCTFHQCVRLSKFDSERSISFIPPDGEFELMRYRTTKDIILPFRVIPLVREVGRTKLEVKVVIKSNFKPSLLAQKIEVRIPTPLNTSGVQVICMKGKAKYKASENAIVWKIKRMAGMKESQISAEIELLPTNDKKKWARPPISMNFEVPFAPSGLKVRYLKVFEPKLNYSDHDVIKWVRYIGRSGIYETRC [M209A]
